Data reported in patent US9526786B2, “Thermostabilization of proteins” (The Trustee of Columbia University in the City of New York, priority 2007, dated 2016).
Where a chain is given by its changes, count along the chain named. Numbers in names are those of the source.

B1: L169K/G173Q/T172R: CocE triple mutant (protein)
chain: MVDGNYSVASNVMVPMRDGVRLAVDLYRPDADGPVPVLLVRNPYDKFDVFAWSTQSTNWLEFVRDGYAVVIQDTRGLFASEGEFVPHVDDEADAEDTLSWILEQAWCDGNVGMFGVSYLGVTQWQAAVSGVGGLKAIAPSMASADLYRAPWYGPGGALSVEALLGWSAKIGRQLITSRSDARPEDAADFVQLAAILNDVAGAASVTPLAEQPLLGRLIPWVIDQVVDHPDNDESWQSISLFERLGGLATPALITAGWYDGFVGESLRTFVAVKDNADARLVVGPWSHSNLTGRNADRKFGIAATYPIQEATTMHKAFFDRHLRGETDALAGVPKVRLFVMGIDEWRDETDWPLPDTAYTPFYLGGSGAANTSTGGGTLSTSISGTESADTYLYDPADPVPSLGGTLLFHNGDNGPADQRPIHDRDDVLCYSTEVLTDPVEVTGTVSARLFVSSSAVDTDFTAKLVDVFPDGRAIALCDGIVRMRYRETLVNPTLIEAGEIYEVAIDMLATSNVFLPGHRIMVQVSSSNFPKYDRNSNTGGVIAREQLEEMCTAVNRIHRGPEHPSHIVLPIIKR
B2: G173Q: CocE mutant (protein, listed as Rhodococcus sp.)
chain: B1 chain with K169L, R172T

Description: Analysis of CocE action on cocaine cleavage is performed by utilizing the spectroscopic properties of cocaine, which maximally absorbs light at a 240 nm wavelength. CocE activity is measured by monitoring for a decrease in signal at A240, using various concentrations of cocaine, and determining the initial rate of the decrease. From these values the Vmax of the enzyme can be determined. By pre-incubating the enzyme at 37° C. for various times before monitoring for activity, the half life of CocE at 37° C. can be calculated.
The initial rates (of decay) were determined by following the change in the intrinsic absorbance of cocaine at 240 nm (6700 M^1 cm^1)(Xie et al., 1999) using a SpectraMax Plus 384 UV plate reader (Molecular Devices, Sunnyvale, Calif.) using SOFTmax Pro software (Version 3.1.2). The reaction was initiated by adding 100 μL of a 2× enzyme solution (100 mM phosphate buffer, pH 7.4 and 300 mM NaCl) to 100 μL of a 2× cocaine solution (50 μg/mL enzyme, 100 mM Phosphate Buffer, pH 7.4 and 300 mM NaCl). All assays were performed with 100 μM DTT unless indicated otherwise. […] For stability measurements, wild type and mutant enzymes were diluted to 2× concentration and incubated at 37° C. for the times indicated. At the end of each time point, an aliquot was removed and kinetic behavior was observed as outlined above.
In vitro kinetic assays. […] Initial rates were then used to determine Michaelis-Menten parameters. To assess thermal stability, enzyme preparations were preincubated at 37° C. for various lengths of time, prior to measurement of residual activities (Table 1 and FIG. 23).

Molecule | enhanced stabilization at 37° C. (data not shown) | Stability @ 37 (t1/2)
B1 | did not display an enhanced stabilization | 
B2 |  | ~25 min
